Laboratory results published in the supplement of paper PMC5998384.

How the values were obtained:
HeLa Kyoto [1] = assay: solubility in G1/S (NP-40 vs SDS abundance) (log2 ratio); higher = more soluble; details: cell cycle stage: G1/S
HeLa Kyoto [2] = assay: melting temperature (median over replicates), in situ; higher = more thermally stable
HeLa Kyoto [3] = assay: solubility change mitosis vs G1/S (difference of NP-40 vs SDS log2 ratios) (log2 ratio difference); higher = more soluble in mitosis
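Throughout, for melting temperature (median over replicates), in situ: HeLa Kyoto cells synchronized by double thymidine or nocodazole block, proteins quantified by TMT10plex mass spectrometry, three independent biological replicates.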
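Throughout, for solubility change mitosis vs G1/S (difference of NP-40 vs SDS log2 ratios): synchronized HeLa Kyoto cells (double thymidine block for G1/S, nocodazole release for mitosis), protein amounts in NP-40 versus SDS lysates quantified by mass spectrometry, three biological replicates.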
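Throughout, for solubility in G1/S (NP-40 vs SDS abundance): HeLa Kyoto cells arrested at G1/S by double thymidine block, proteins quantified by TMT10plex mass spectrometry in mild NP-40 versus SDS extracts, three biological replicates.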

| Sequence | solubility in G1/S (log2) (HeLa Kyoto [1]) | melting temperature (HeLa Kyoto [2]; cell cycle stage: G1/S) | melting temperature (HeLa Kyoto [2]; cell cycle stage: mitosis) | solubility change mitosis (log2) (HeLa Kyoto [3]) |
| --- | --- | --- | --- | --- |
| MGGLFWRSALRGLRCGPRAPGPSLLVRHGSGGPSWTRERTLVAVKPDGVQRRLVGDVIQRFERRGFTLVGMKMLQAPESVLAEHYQDLRRKPFYPALIRYMSSGPVVAMVWEGYNVVRASRAMIGHTDSAEAAPGTIRGDFSVHISRNVIHASDSVEGAQREIQLWFQSSELVSWADGGQHSSIHPA [NME4] | 0.0944 | 54.9 °C | 54.5 °C | -0.189 |
| MGKEKTHINIVVIGHVDSGKSTTTGHLIYKCGGIDKRTIEKFEKEAAEMGKGSFKYAWVLDKLKAERERGITIDISLWKFETSKYYVTIIDAPGHRDFIKNMITGTSQADCAVLIVAAGVGEFEAGISKNGQTREHALLAYTLGVKQLIVGVNKMDSTEPPYSQKRYEEIVKEVSTYIKKIGYNPDTVAFVPISGWNGDNMLEPSANMPWFKGWKVTRKDGNASGTTLLEALDCILPPTRPTDKPLRLPLQDVYKIGGIGTVPVGRVETGVLKPGMVVTFAPVNVTTEVKSVEMHHEALSEALPGDNVGFKVKNVSVKDVRRGNVAGDSKNDPPMEAAGFTAQVIILNHPGQISAGYAPVLDCHMAHIACKFAELKEKIDRRSGKKLEDGPKFLKSGDAAIVDMVPGKPMCVESFSDYPPLGRFAVRDMRQTVAVGVIKAVDKKAAGAGKVTKSAQKAQKAK [EEF1A1P5] | 0.301 | 52.4 °C | 52.4 °C | -0.0239 |
| MGLGPVFLLLAGIFPFAPPGAAAEPHSLRYNLTVLSWDGSVQSGFLTEVHLDGQPFLRCDRQKCRAKPQGQWAEDVLGNKTWDRETRDLTGNGKDLRMTLAHIKDQKEGLHSLQEIRVCEIHEDNSTRSSQHFYYDGELFLSQNLETKEWTMPQSSRAQTLAMNVRNFLKEDAMKTKTHYHAMHADCLQELRRYLKSGVVLRRTVPPMVNVTRSEASEGNITVTCRASGFYPWNITLSWRQDGVSLSHDTQQWGDVLPDGNGTYQTWVATRICQGEEQRFTCYMEHSGNHSTHPVPSGKVLVLQSHWQTFHVSAVAAAAIFVIIIFYVRCCKKKTSAAEGPELVSLQVLDQHPVGTSDHRDATQLGFQPLMSDLGSTGSTEGA [MICA] | -0.128 | 55.9 °C | 57.2 °C | -0.108 |
| MGLHLRPYRVGLLPDGLLFLLLLLMLLADPALPAGRHPPVVLVPGDLGNQLEAKLDKPTVVHYLCSKKTESYFTIWLNLELLLPVIIDCWIDNIRLVYNKTSRATQFPDGVDVRVPGFGKTFSLEFLDPSKSSVGSYFHTMVESLVGWGYTRGEDVRGAPYDWRRAPNENGPYFLALREMIEEMYQLYGGPVVLVAHSMGNMYTLYFLQRQPQAWKDKYIRAFVSLGAPWGGVAKTLRVLASGDNNRIPVIGPLKIREQQRSAVSTSWLLPYNYTWSPEKVFVQTPTINYTLRDYRKFFQDIGFEDGWLMRQDTEGLVEATMPPGVQLHCLYGTGVPTPDSFYYESFPDRDPKICFGDGDGTVNLKSALQCQAWQSRQEHQVLLQELPGSEHIEMLANATTLAYLKRVLLGP [PLA2G15] | 0.446 | 54.7 °C | 56.1 °C | 0.0116 |
| MGRKVTVATCALNQWALDFEGNLQRILKSIEIAKNRGARYRLGPELEICGYGCWDHYYESDTLLHSFQVLAALVESPVTQDIICDVGMPVMHRNVRYNCRVIFLNRKILLIRPKMALANEGNYRELRWFTPWSRSRHTEEYFLPRMIQDLTKQETVPFGDAVLVTWDTCIGSEICEELWTPHSPHIDMGLDGVEIITNASGSHQVLRKANTRVDLVTMVTSKNGGIYLLANQKGCDGDRLYYDGCAMIAMNGSVFAQGSQFSLDDVEVLTATLDLEDVRSYRAEISSRNLAASRASPYPRVKVDFALSCHEDLLAPISEPIEWKYHSPEEEISLGPACWLWDFLRRSQQAGFLLPLSGGVDSAATACLIYSMCCQVCEAVRSGNEEVLADVRTIVNQISYTPQDPRDLCGRILTTCYMASKNSSQETCTRARELAQQIGSHHISLNIDPAVKAVMGIFSLVTGKSPLFAAHGGSSRENLALQNVQARIRMVLAYLFAQLSLWSRGVHGGLLVLGSANVDESLLGYLTKYDCSSADINPIGGISKTDLRAFVQFCIQRFQLPALQSILLAPATAELEPLADGQVSQTDEEDMGMTYAELSVYGKLRKVAKMGPYSMFCKLLGMWRHICTPRQVADKVKRFFSKYSMNRHKMTTLTPAYHAENYSPEDNRFDLRPFLYNTSWPWQFRCIENQVLQLERAEPQSLDGVD [NADSYN1] | 0.157 | – | 56.3 °C | -0.234 |
| MKDPSRSSTSPSIINEDVIINGHSHEDDNPFAEYMWMENEEEFNRQIEEELWEEEFIERCFQEMLEEEEEHEWFIPARDLPQTMDQIQDQFNDLVISDGSSLEDLVVKSNLNPNAKEFVPGVKYGNI [PAIP2] | 0.197 | 50.5 °C | – | -0.113 |
